In US20250277199, “NOVEL CRISPR-CAS NUCLEASES FROM METAGENOMES” (Brain Biotech AG, published 2025):

Biological target: T1, BMC15 (uncultured bacterium (metagenome))
T1 chain: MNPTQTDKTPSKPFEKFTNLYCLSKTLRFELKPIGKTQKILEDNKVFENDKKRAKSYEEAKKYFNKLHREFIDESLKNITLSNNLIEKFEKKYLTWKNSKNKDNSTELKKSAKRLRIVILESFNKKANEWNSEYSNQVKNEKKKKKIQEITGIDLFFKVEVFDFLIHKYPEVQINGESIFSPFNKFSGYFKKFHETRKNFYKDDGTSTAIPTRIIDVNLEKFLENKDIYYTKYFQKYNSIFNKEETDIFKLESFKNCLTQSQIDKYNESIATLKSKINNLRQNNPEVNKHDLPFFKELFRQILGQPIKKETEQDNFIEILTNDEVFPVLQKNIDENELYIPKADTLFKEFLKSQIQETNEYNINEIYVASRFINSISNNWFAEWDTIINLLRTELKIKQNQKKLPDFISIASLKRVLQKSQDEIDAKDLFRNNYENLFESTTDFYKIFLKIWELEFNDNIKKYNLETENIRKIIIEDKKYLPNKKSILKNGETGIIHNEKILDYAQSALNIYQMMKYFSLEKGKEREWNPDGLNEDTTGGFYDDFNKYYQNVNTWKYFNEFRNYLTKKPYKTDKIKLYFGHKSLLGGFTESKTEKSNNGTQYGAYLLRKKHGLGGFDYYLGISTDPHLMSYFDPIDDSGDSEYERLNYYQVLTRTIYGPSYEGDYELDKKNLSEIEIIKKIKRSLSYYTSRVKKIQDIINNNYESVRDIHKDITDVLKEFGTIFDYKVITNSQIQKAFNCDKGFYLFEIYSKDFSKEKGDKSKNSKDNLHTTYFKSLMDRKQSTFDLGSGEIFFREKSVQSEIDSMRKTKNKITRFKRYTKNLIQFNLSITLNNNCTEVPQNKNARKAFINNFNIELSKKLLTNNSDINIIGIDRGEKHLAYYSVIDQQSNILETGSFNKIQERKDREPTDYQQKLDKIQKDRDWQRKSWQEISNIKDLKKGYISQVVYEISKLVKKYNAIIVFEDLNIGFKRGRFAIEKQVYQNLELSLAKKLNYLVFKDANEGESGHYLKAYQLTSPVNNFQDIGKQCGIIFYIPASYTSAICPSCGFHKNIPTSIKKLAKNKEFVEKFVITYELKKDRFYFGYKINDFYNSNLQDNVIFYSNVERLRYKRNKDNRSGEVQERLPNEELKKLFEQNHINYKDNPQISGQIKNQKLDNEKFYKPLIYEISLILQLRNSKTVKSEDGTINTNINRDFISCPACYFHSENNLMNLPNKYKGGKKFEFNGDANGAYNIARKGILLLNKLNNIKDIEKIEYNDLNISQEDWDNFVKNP
Experiment: cell_activity; PAM not stated; E. coli depletion, 30 C
Procedure: Overnight grown pre-cultures were diluted into fresh 60 ml LB-Kanamycin (25 μg/ml) (Example 4) or LB-Kanamycin (25μg/ml)/Nourseothricin (50 μg/ml) medium (Example 5) to obtain an optical density at 600 nm (OD600) of 0.06. The inoculated medium was incubated at 30° C. on a horizontal shaker at 250 rpm until the culture reached an optical density at OD600 of 0.2. For induced BMC (NN) nuclease expression, 600 μl 20% L-(+)-arabinose (w/v) was added to the culture at a final concentration of 0.2% (v/v). The cultivation was continued until the culture reached an optical density at OD600 of 0.5. Subsequently 50 ml culture was transferred into one 50 ml conical tube and harvested by centrifugation at 4° C. for 5 min and 4000×g. Pelleted cells were resuspended in 50 ml ultrapure water (ice-cold) and centrifuged at 4° C. for 5 min and 4000×g.
This washing procedure was repeated twice. Washed cells were resuspended in 25 ml 10% (w/w) glycerin and re-centrifuged at 4° C. for 5 min and 4000×g. The pelleted cells were resuspended in 5 ml 10% (w/w) glycerin. After the final centrifugation step at 4° C. for 5 min and 4000×g, the cells were resuspended in 125 μl 10% (w/w) glycerin. Aliquots of 25 μl competent cells were stored at −80° C. until use. For the transformation procedure, aliquots of competent cells were thawed on ice and 50-100 ng plasmid DNA (CRISPR/gRNA-Ec) was added. Prepared cells were electroporated at 1800 V, 25 μF and 200 Ω in 1 mm gap size electroporation cuvettes, using the Bio-Rad Gene Pulser Xcell Electroporation System. Subsequently, 975 μL of NEB® 10-beta/Stable Outgrowth Medium was added immediately after the pulse to the transformed cells. Regeneration was done at 30° C. on a horizontal shaker at 250 rpm. Finally, 25-100 μl of the cell suspension was plated onto selective M9-Glucose agar plates supplemented with Kanamycin (25 μg/ml)/Ampicillin (100 μg/ml) (Example 4) or Kanamycin (25 μg/ml)/Ampicillin (100 μg/ml)/Nourseothrin (50 μg/ml) (Example 5). Growth of transformed E. coli cells on selective agar plates was screened for 48 h at 30° C.
As described above, each of the BMC01, BMC02, BMC03, BMC04, BMC05, BMC07, BMC08, BMC09, BMC10, BMC11, BMC12, BMC13, BMC14, or BMC15 nucleases was co-transformed into E. coli with a gRNA targeting the E. coli malQ gene to visualize a) the activity and b) the DNA targeting efficiency of the BMC nucleases.

B1: malQ gRNA (BMC stem-loop + 24 nt spacer) ; malQ protospacer (ssRNA ; dsDNA)
RNA: GAUUUCUACUAUUGUAGAUGUGGCGGUACGUUGAUGCAUCGCG
DNA 1: GTGGCGGTACGTTGATGCATCGCG
DNA 2: CGCGATGCATCAACGTACCGCCAC
Work on B1 yielded an activity of over 99.9 % colony reduction.
